Laboratory results as given in publication PMC11709261.
Like-named read-outs stand apart in the source and are kept apart here.

What was measured:
Assay in all cases: two-hybrid; bacterial adenylate cyclase two-hybrid (BACTH) in E. coli BTH101 (cya) or derivatives (ΔdsbA AP58, ΔdjlA AP63, rcsB::tet EAW1, rcsC::tet EAW2, rcsF::cat EAW4); proteins fused at their C-terminus to T18 or T25; some sets with DjlA or DjlA variants co-expressed downstream of IgaA-T18; overnight growth in LB with 0.5 mM IPTG at 30°C; beta-galactosidase (ONPG, OD420 kinetics at 28°C), plotted relative to IgaA/RcsD
RcsD (E. coli) [1] = biological target: RcsD (E. coli) (UniProt P39838)
Chain of UniProt P39838 (P39838 whole entry): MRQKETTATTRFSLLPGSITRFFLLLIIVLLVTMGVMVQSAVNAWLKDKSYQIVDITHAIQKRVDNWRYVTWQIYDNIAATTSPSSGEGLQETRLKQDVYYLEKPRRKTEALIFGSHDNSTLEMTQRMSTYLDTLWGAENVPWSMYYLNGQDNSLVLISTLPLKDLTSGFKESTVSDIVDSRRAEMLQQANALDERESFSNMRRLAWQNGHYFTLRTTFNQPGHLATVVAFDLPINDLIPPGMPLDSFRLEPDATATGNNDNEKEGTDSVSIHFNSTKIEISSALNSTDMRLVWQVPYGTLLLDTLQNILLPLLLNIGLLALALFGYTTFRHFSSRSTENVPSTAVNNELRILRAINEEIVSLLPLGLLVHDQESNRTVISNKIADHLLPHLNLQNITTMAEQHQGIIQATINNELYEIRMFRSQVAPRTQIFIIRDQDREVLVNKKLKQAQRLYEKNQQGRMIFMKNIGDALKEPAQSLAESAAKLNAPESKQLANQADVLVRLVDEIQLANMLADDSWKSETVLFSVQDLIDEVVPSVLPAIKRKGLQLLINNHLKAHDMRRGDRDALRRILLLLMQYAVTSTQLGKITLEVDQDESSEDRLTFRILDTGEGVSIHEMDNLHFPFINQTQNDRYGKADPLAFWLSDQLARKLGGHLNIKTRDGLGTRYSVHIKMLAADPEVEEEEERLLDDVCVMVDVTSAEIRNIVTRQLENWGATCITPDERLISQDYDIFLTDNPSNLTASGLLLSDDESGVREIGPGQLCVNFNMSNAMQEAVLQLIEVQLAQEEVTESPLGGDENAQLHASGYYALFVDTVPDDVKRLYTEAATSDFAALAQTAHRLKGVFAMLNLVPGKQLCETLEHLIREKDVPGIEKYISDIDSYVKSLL

RcsD (E. coli) [2] = biological target: RcsD (E. coli) (UniProt P39838); remark: listed apart in the source
RcsD (E. coli) [3] = biological target: RcsD (E. coli) (UniProt P39838); remark: listed apart in the source
RcsD (E. coli) [4] = biological target: RcsD (E. coli) (UniProt P39838); remark: listed apart in the source
RcsD (E. coli) [5] = biological target: RcsD (E. coli) (UniProt P39838); remark: listed apart in the source
RcsD (E. coli) [6] = biological target: RcsD (E. coli) (UniProt P39838); remark: listed apart in the source

IgaA (natural protein)
beta-galactosidase activity (BACTH) (units (1000x the slope of OD420)) (RcsD (E. coli) [1]): 577
beta-galactosidase activity (BACTH) (units (1000x the slope of OD420)) (RcsD (E. coli) [2]): 490
beta-galactosidase activity (BACTH) (units (1000x the slope of OD420)) (RcsD (E. coli) [3]): 580
beta-galactosidase activity (BACTH) (units (1000x the slope of OD420)) (RcsD (E. coli) [4]): 569
beta-galactosidase activity (BACTH) (RcsD (E. coli) [5]): 533 units
beta-galactosidase activity (BACTH) (units (1000x the slope of OD420)) (RcsD (E. coli) [5]): 545
beta-galactosidase activity (BACTH) (units (1000x the slope of OD420)) (RcsD (E. coli) [6]): 578
